# Measurements as given in patent publication US20240117018A1.
# Tests used:
# Experiment in all cases: cell-based or functional assay
# [1] = molecular target: HIV-1 Env of pseudovirus 3103.v3.c10 (HIV-1)
# [2] = molecular target: HIV-1 Env of pseudovirus X1193_c1 (HIV-1)
# [3] = molecular target: HIV-1 Env of pseudovirus X1254_c3 (HIV-1)
# [4] = molecular target: HIV-1 Env of pseudovirus 9004SS_A3_4 (HIV-1)
# [5] = molecular target: HIV-1 Env of pseudovirus BJOX010000.06.2 (HIV-1)
# [6] = molecular target: HIV-1 Env of pseudovirus 6545.v4.c1 (HIV-1)
# [7] = molecular target: HIV-1 Env of pseudovirus BJOX009000.02.4 (HIV-1)
# [8] = molecular target: HIV-1 Env of pseudovirus A07412M1.vrc12 (HIV-1)
# [9] = molecular target: HIV-1 Env of pseudovirus 231965.c01 (HIV-1)
# [10] = molecular target: HIV-1 Env of pseudovirus 211-9 (HIV-1)
# [11] = molecular target: HIV-1 Env of pseudovirus 6041.v3.c23 (HIV-1)
# [12] = molecular target: HIV-1 Env of pseudovirus X2131_C1_B5 (HIV-1)
# [13] = molecular target: HIV-1 Env of pseudovirus 6540.v4.c1 (HIV-1)
# [14] = molecular target: HIV-1 Env of pseudovirus C1080.c03 (HIV-1)
# [15] = molecular target: HIV-1 Env of pseudovirus 263-8 (HIV-1)
# [16] = molecular target: HIV-1 Env of pseudovirus 191084 B7-19 (HIV-1)
# [17] = molecular target: HIV-1 Env of pseudovirus 89-F1_2_25 (HIV-1)
# [18] = molecular target: HIV-1 Env of pseudovirus 620345.c01 (HIV-1)
# [19] = molecular target: HIV-1 Env of pseudovirus R2184.c04 (HIV-1)
# [20] = molecular target: HIV-1 Env of pseudovirus T251-18 (HIV-1)
# [21] = molecular target: HIV-1 Env of pseudovirus 6952.v1.c20 (HIV-1)
# [22] = molecular target: HIV-1 Env of pseudovirus X2088_c9 (HIV-1)
# [23] = molecular target: HIV-1 Env of pseudovirus P0402_c2_11 (HIV-1)
# [24] = molecular target: HIV-1 Env of pseudovirus 3016.v5.c45 (HIV-1)
# [25] = molecular target: HIV-1 Env of pseudovirus C3347.c11 (HIV-1)
# [26] = molecular target: HIV-1 Env of pseudovirus T255-34 (HIV-1)
# [27] = molecular target: HIV-1 Env of pseudovirus BJOX025000.01.1 (HIV-1)
# [28] = molecular target: HIV-1 Env of pseudovirus 0815.v3.c3 (HIV-1)
# [29] = molecular target: HIV-1 Env of pseudovirus 231966.c02 (HIV-1)
# [30] = molecular target: HIV-1 Env of pseudovirus 3301.v1.c24 (HIV-1)
# [31] = molecular target: HIV-1 Env of pseudovirus T278-50 (HIV-1)
# [32] = molecular target: HIV-1 Env of pseudovirus C4118.c09 (HIV-1)
# [33] = molecular target: HIV-1 Env of pseudovirus T257-31 (HIV-1)
# [34] = molecular target: HIV-1 Env of pseudovirus R3265.c06 (HIV-1)
# [35] = molecular target: HIV-1 Env of pseudovirus P1981_C5_3 (HIV-1)
# [36] = molecular target: HIV-1 Env of pseudovirus R1166.c01 (HIV-1)
# [37] = molecular target: HIV-1 Env of pseudovirus BJOX028000.10.3 (HIV-1)
substance,measurement,setting,value
N49P7 (antibody),"IC50 (neutralisation, TZM.bl cells)",[1],0.158 µg/mL
same,"IC80 (neutralisation, TZM.bl cells)",[1],0.509 µg/mL
same,MPI,[1],100
same,IC50,[2],0.016 µg/mL
same,IC80,[2],0.06 µg/mL
same,MPI,[2],100
same,IC50,[3],2.97 µg/mL
same,IC80,[3],13.6 µg/mL
same,MPI,[3],100
same,IC50,[4],0.125 µg/mL
same,IC80,[4],0.39 µg/mL
same,MPI,[4],100
same,IC50,[5],0.085 µg/mL
same,IC80,[5],0.592 µg/mL
same,MPI,[5],100
same,"IC50 (neutralisation, TZM.bl cells)",[6],2 µg/mL
same,"IC80 (neutralisation, TZM.bl cells)",[6],14.7 µg/mL
same,MPI,[6],96
same,IC50,[7],0.113 µg/mL
same,IC80,[7],0.506 µg/mL
same,MPI,[7],100
same,"IC50 (neutralisation, TZM.bl cells)",[8],0.108 µg/mL
same,"IC80 (neutralisation, TZM.bl cells)",[8],0.645 µg/mL
same,MPI,[8],100
same,"IC50 (neutralisation, TZM.bl cells)",[9],0.054 µg/mL
same,"IC80 (neutralisation, TZM.bl cells)",[9],0.193 µg/mL
same,MPI,[9],100
same,IC50,[10],0.22 µg/mL
same,IC80,[10],0.767 µg/mL
same,MPI,[10],100
same,"IC50 (neutralisation, TZM.bl cells)",[11],0.047 µg/mL
same,"IC80 (neutralisation, TZM.bl cells)",[11],0.222 µg/mL
same,MPI,[11],100
same,"IC50 (neutralisation, TZM.bl cells)",[12],0.081 µg/mL
same,"IC80 (neutralisation, TZM.bl cells)",[12],0.273 µg/mL
same,MPI,[12],100
same,"IC50 (neutralisation, TZM.bl cells)",[13],11.7 µg/mL
same,"IC80 (neutralisation, TZM.bl cells)",[13],33.2 µg/mL
same,MPI,[13],92
same,IC50,[14],0.114 µg/mL
same,IC80,[14],0.765 µg/mL
same,MPI,[14],100
same,IC50,[15],0.056 µg/mL
same,IC80,[15],0.201 µg/mL
same,MPI,[15],100
same,IC50,[16],0.047 µg/mL
same,IC80,[16],0.142 µg/mL
same,MPI,[16],100
same,"IC50 (neutralisation, TZM.bl cells)",[17],21.6 µg/mL
same,"IC80 (neutralisation, TZM.bl cells)",[17],> 50 µg/mL
same,MPI,[17],80
same,IC50,[18],23.2 µg/mL
same,IC80,[18],47.9 µg/mL
same,MPI,[18],82
same,IC50,[19],0.011 µg/mL
same,IC80,[19],0.031 µg/mL
same,MPI,[19],100
same,IC50,[20],0.178 µg/mL
same,IC80,[20],0.62 µg/mL
same,MPI,[20],100
same,"IC50 (neutralisation, TZM.bl cells)",[21],18.4 µg/mL
same,"IC80 (neutralisation, TZM.bl cells)",[21],38.9 µg/mL
same,MPI,[21],91
same,IC50,[22],0.116 µg/mL
same,IC80,[22],0.338 µg/mL
same,MPI,[22],100
same,IC50,[23],0.014 µg/mL
same,IC80,[23],0.061 µg/mL
same,MPI,[23],100
same,"IC50 (neutralisation, TZM.bl cells)",[24],0.221 µg/mL
same,"IC80 (neutralisation, TZM.bl cells)",[24],1.04 µg/mL
same,MPI,[24],100
same,IC50,[25],0.024 µg/mL
same,IC80,[25],0.067 µg/mL
same,MPI,[25],100
same,IC50,[26],0.053 µg/mL
same,IC80,[26],0.262 µg/mL
same,MPI,[26],100
same,IC50,[27],0.038 µg/mL
same,IC80,[27],0.236 µg/mL
same,MPI,[27],100
same,"IC50 (neutralisation, TZM.bl cells)",[28],0.016 µg/mL
same,"IC80 (neutralisation, TZM.bl cells)",[28],0.053 µg/mL
same,MPI,[28],100
same,"IC50 (neutralisation, TZM.bl cells)",[29],0.102 µg/mL
same,"IC80 (neutralisation, TZM.bl cells)",[29],0.43 µg/mL
same,MPI,[29],100
same,"IC50 (neutralisation, TZM.bl cells)",[30],0.025 µg/mL
same,"IC80 (neutralisation, TZM.bl cells)",[30],0.069 µg/mL
same,MPI,[30],100
same,IC50,[31],22.3 µg/mL
same,IC80,[31],> 50 µg/mL
same,MPI,[31],75
same,IC50,[32],0.043 µg/mL
same,IC80,[32],0.147 µg/mL
same,MPI,[32],100
same,IC50,[33],0.158 µg/mL
same,IC80,[33],0.619 µg/mL
same,MPI,[33],100
same,IC50,[34],0.048 µg/mL
same,IC80,[34],0.282 µg/mL
same,MPI,[34],100
same,"IC50 (neutralisation, TZM.bl cells)",[35],0.113 µg/mL
same,"IC80 (neutralisation, TZM.bl cells)",[35],0.274 µg/mL
same,MPI,[35],100
same,IC50,[36],0.092 µg/mL
same,IC80,[36],0.313 µg/mL
same,MPI,[36],100
same,IC50,[37],0.02 µg/mL
same,IC80,[37],0.123 µg/mL
same,MPI,[37],100
PG16 (antibody),IC50 neutralization (TZM.bl),[1],25.4 µg/mL
same,IC80 neutralization (TZM.bl),[1],> 50 µg/mL
same,IC50 neutralization (TZM.bl),[2],0.018 µg/mL
same,IC80 neutralization (TZM.bl),[2],0.11 µg/mL
same,IC50 neutralization (TZM.bl),[3],0.023 µg/mL
same,IC80 neutralization (TZM.bl),[3],0.218 µg/mL
same,IC50 neutralization (TZM.bl),[5],1.2 µg/mL
same,IC80 neutralization (TZM.bl),[5],> 50 µg/mL
same,IC50 neutralization (TZM.bl),[6],0.044 µg/mL
same,IC80 neutralization (TZM.bl),[6],1.56 µg/mL
same,IC50 neutralization (TZM.bl),[7],1.19 µg/mL
same,IC80 neutralization (TZM.bl),[7],22.1 µg/mL
same,IC50 neutralization (TZM.bl),[8],0.343 µg/mL
same,IC80 neutralization (TZM.bl),[8],> 50 µg/mL
same,IC50 neutralization (TZM.bl),[9],1.44 µg/mL
same,IC80 neutralization (TZM.bl),[9],> 50 µg/mL
same,IC50 neutralization (TZM.bl),[10],0.029 µg/mL
same,IC80 neutralization (TZM.bl),[10],0.144 µg/mL
same,IC50 neutralization (TZM.bl),[11],0.048 µg/mL
same,IC80 neutralization (TZM.bl),[11],0.256 µg/mL
same,IC50 neutralization (TZM.bl),[12],0.024 µg/mL
same,IC80 neutralization (TZM.bl),[12],0.139 µg/mL
same,IC50 neutralization (TZM.bl),[13],0.035 µg/mL
same,IC80 neutralization (TZM.bl),[13],0.42 µg/mL
same,IC50 neutralization (TZM.bl),[14],0.001 µg/mL
same,IC80 neutralization (TZM.bl),[14],0.003 µg/mL
same,IC50 neutralization (TZM.bl),[17],47.6 µg/mL
same,IC80 neutralization (TZM.bl),[17],> 50 µg/mL
same,IC50 neutralization (TZM.bl),[18],> 50 µg/mL
same,IC80 neutralization (TZM.bl),[18],> 50 µg/mL
same,IC50 neutralization (TZM.bl),[19],0.67 µg/mL
same,IC80 neutralization (TZM.bl),[19],> 50 µg/mL
same,IC50 neutralization (TZM.bl),[20],1.72 µg/mL
same,IC80 neutralization (TZM.bl),[20],44.7 µg/mL
same,IC50 neutralization (TZM.bl),[21],21.9 µg/mL
same,IC80 neutralization (TZM.bl),[21],> 50 µg/mL
same,IC50 neutralization (TZM.bl),[22],> 50 µg/mL
same,IC80 neutralization (TZM.bl),[22],> 50 µg/mL
same,IC50 neutralization (TZM.bl),[23],0.025 µg/mL
same,IC80 neutralization (TZM.bl),[23],0.411 µg/mL
same,IC50 neutralization (TZM.bl),[24],> 50 µg/mL
same,IC80 neutralization (TZM.bl),[24],> 50 µg/mL
same,IC50 neutralization (TZM.bl),[25],0.008 µg/mL
same,IC80 neutralization (TZM.bl),[25],0.045 µg/mL
same,IC50 neutralization (TZM.bl),[26],0.024 µg/mL
same,IC80 neutralization (TZM.bl),[26],0.125 µg/mL
same,IC50 neutralization (TZM.bl),[27],0.071 µg/mL
same,IC80 neutralization (TZM.bl),[27],> 50 µg/mL
same,IC50 neutralization (TZM.bl),[28],> 50 µg/mL
same,IC80 neutralization (TZM.bl),[28],> 50 µg/mL
same,IC50 neutralization (TZM.bl),[29],0.007 µg/mL
same,IC80 neutralization (TZM.bl),[29],0.031 µg/mL
same,IC50 neutralization (TZM.bl),[30],0.02 µg/mL
same,IC80 neutralization (TZM.bl),[30],0.087 µg/mL
same,IC50 neutralization (TZM.bl),[31],0.227 µg/mL
same,IC80 neutralization (TZM.bl),[31],18.6 µg/mL
same,IC50 neutralization (TZM.bl),[32],0.022 µg/mL
same,IC80 neutralization (TZM.bl),[32],0.143 µg/mL
same,IC50 neutralization (TZM.bl),[34],0.016 µg/mL
same,IC80 neutralization (TZM.bl),[34],0.146 µg/mL
same,IC50 neutralization (TZM.bl),[35],0.376 µg/mL
same,IC80 neutralization (TZM.bl),[35],> 50 µg/mL
same,IC50 neutralization (TZM.bl),[36],0.28 µg/mL
same,IC80 neutralization (TZM.bl),[36],4.38 µg/mL
same,IC50 neutralization (TZM.bl),[37],> 50 µg/mL
same,IC80 neutralization (TZM.bl),[37],> 50 µg/mL
